Residual plasmin activity data for 1 molecule are collected here from patent publication US20250179215A1, “PLASMIN-BINDING VHHS” (RHEINISCHE FRIEDRICH-WILHELMS-UNIVERSITÄT BONN, priority 2022, published 2025).

The target of the experiment is T1, plasmin (Homo sapiens, UniProt P00747).
T1 construct: human Lys-plasmin which is prepared from homogeneous Glu-plasminogen using uPA; purchased Haematologic Technologies, Inc. (Essex Junction, VT)
The experiment can be described thus: Plasmin inhibition assay (α2-AP-mediated plasmin inactivation). Type of experiment: biochemical. The conditions noted are these: α2AP alone, molar excess of α2AP over plasmin. As to the method: FIG. 7. Impact of VHHs binding on α2-AP-mediated plasmin inactivation. […] After 30 min of incubation, the residual activity of plasmin was measured by addition of 50 μl of the sample to 50 μl of a plasmin-specific fluorogenic substrate (400 μM). The plasmin activity in the wells in the absence of VHHs and α2AP was considered as 100% activity and relative residual plasmin activities calculated accordingly. The data are presented as mean±SD of three independent measurements.
After incubation for 30 min at 37° C., 50 μl of the mixture were transferred to the wells of black F16 Fluoronunc modules and 50 μl of plasmin-specific fluorogenic substrate (800 μM) were added and substrate hydrolysis measured at λex of 360 nm and λem of 460 nm. The plasmin activity in the reactions containing all reagents except α2-AP was set as 100%.

Some results are limits rather than exact numbers.

T1 sequence (P00747 97-580 limits assumed): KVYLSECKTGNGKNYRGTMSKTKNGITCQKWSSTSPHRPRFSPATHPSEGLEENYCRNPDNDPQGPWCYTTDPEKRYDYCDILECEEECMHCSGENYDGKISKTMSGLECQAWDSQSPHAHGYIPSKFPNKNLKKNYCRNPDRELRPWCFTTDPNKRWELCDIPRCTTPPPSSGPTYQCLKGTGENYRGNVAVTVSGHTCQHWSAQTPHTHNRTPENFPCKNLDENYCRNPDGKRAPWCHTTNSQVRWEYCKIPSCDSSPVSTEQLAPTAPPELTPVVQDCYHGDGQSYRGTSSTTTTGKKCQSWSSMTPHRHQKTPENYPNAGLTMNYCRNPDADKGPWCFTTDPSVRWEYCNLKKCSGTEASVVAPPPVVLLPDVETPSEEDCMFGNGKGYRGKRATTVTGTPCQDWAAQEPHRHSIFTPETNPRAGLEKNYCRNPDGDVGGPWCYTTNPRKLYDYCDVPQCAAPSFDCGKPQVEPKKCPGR
T1 sequence (P00747 581-810 limits assumed): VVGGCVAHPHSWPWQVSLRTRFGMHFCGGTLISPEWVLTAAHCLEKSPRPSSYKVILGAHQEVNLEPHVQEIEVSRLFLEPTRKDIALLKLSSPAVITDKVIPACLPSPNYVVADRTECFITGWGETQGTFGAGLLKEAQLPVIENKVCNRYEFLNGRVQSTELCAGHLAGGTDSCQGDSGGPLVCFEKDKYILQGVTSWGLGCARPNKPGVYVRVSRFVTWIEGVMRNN

B1: alpha2-antiplasmin (protein)
chain: NQEQVSPLTLLKLGNQEPGGQTALKSPPGVCSRDPTPEQTHRLARAMMAFTADLFSLVAQTSTCPNLILSPLSVALALSHLALGAQNHTLQRLQQVLHAGSGPCLPHLLSRLCQDLGPGAFRLAARMYLQKGFPIKEDFLEQSEQLFGAKPVSLTGKQEDDLANINQWVKEATEGKIQEFLSGLPEDTVLLLLNAIHFQGFWRNKFDPSLTQRDSFHLDEQFTVPVEMMQARTYPLRWFLLEQPEIQVAHFPFKNNMSFVVLVPTHFEWNVSQVLANLSWDTLHPPLVWERPTKVRLPKLYLKHQMDLVATLSQLGLQELFQAPDLRGISEQSLVVSGVQHQSTLELSEVGVEAAAATSIAMSRMSLSSFSVNRPFLFFIFEDTTGLPLFVGSVRNPNPSAPRELKEQQDSPGNKDFLQSLKGFPRGDKLFGPDLKLVPPMEEDYPQFGSPK
Molecule B1 yielded a residual plasmin activity of less than 0.1%.
